The text below walks through data of patent publication US20090280535, “SUMO Fusion Protein Expression System for Producing Native Proteins” (Academia Sinica, published 2009).

T1 sequence (P0A7G6 2-353, one chain of several): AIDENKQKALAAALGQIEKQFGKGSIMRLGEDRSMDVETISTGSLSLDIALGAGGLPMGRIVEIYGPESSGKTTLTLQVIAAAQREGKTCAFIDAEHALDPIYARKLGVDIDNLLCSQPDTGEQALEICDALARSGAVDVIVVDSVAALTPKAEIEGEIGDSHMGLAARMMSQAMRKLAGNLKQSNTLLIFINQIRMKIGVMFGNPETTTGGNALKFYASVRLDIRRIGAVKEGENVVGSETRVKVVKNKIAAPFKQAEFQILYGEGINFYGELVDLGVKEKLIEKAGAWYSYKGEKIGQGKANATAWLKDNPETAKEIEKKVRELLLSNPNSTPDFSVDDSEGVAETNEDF

The first series has as its target T1, RecA (Escherichia coli, UniProt P0A7G6 P0A7G6:2-353). The series is described as follows: competition; 80 uM oligo competes against 8 uM ds-PhiX174 in EMSA. The conditions noted are these: tags: none (released from His6-Smt3-RecA by Ulp1 403-621 cleavage). On the procedure: (§1) The biological activities of the purified RecA protein was tested as follows. First, an electrophoretic mobility shift assay was performed to examine whether the RecA protein was capable of binding to DNA, following the method described in Chen et al., Proc. Natl. Acad Sci USA 101: 10572-10577 (2004). […] Six oligonucleotides, i.e., (CT)₂₀, (CA)₂₀, (GT)₂₀, (GA)₂₀, (AT)₂₀, and (CG)₂₀ described in Biet et al., Nucleic Acids Res 27:596-600 (1999), were used to determine the preference of the RecA protein for binding to double-strand (ds) or single-strand (ss) DNAs. 80 μM of each of the oligonucleotides was incubated with the RecA protein in the presence of circular ds-ΦX174 (8 μM) DNA and then a mobility shift assay was performed to examine the binding between the RecA protein and the ds- or ss-DNAs.
(Mobility shift assays separate free from complexed probe on a gel.)
GAGAGAGAGAGAGAGAGAGAGAGAGAGAGAGAGAGAGAGA (ssDNA) [(GA)20]: the binding result is reported as “binds”. As for CGCGCGCGCGCGCGCGCGCGCGCGCGCGCGCGCGCGCGCG (ssDNA) [(CG)20], the binding result was “binds”. Regarding CACACACACACACACACACACACACACACACACACACACA (ssDNA) [(CA)20], the binding result is “binds”. As for GTGTGTGTGTGTGTGTGTGTGTGTGTGTGTGTGTGTGTGT (ssDNA) [(GT)20], the binding result is given as “binds”. In the case of ATATATATATATATATATATATATATATATATATATATAT (ssDNA) [(AT)20], the binding result is given as “binds”.

In a further series the target is T1, RecA. Kind of series: competition; 80 uM oligo competes against 8 uM ds-PhiX174 in EMSA; no significant effect at 2, 4 or 8 uM. The conditions noted are these: tags: none (released from His6-Smt3-RecA by Ulp1 403-621 cleavage). On the procedure: as §1
Regarding CTCTCTCTCTCTCTCTCTCTCTCTCTCTCTCTCTCTCTCT (ssDNA) [(CT)20], the binding result was “binds”.
